Experimental data from paper PMC9482650, “Quantitative fragmentomics allow affinity mapping of interactomes” (Nature Communications, 2022).

T1: MPDZ_10, O75970
T1 sequence (O75970 1624-1722, limits assumed, looked up): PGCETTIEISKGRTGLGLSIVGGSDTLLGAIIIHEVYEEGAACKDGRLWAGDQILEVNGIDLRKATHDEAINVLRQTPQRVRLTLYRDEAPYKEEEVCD

T2: PARD3B_1, Q8TEW8
T2 sequence (Q8TEW8 196-299, limits assumed, looked up): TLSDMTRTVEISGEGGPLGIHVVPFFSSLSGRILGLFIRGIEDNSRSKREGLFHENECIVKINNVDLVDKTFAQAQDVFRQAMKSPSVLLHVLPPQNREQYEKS

T3: PDZRN3_1, Q9UPQ7
T3 sequence (Q9UPQ7 244-349, limits assumed, looked up): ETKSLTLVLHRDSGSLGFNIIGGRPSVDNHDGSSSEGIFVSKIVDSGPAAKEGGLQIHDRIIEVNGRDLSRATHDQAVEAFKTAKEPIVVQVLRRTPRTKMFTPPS

T4: APBA1_2, Q02410
T4 sequence (Q02410 742-832, limits assumed, looked up): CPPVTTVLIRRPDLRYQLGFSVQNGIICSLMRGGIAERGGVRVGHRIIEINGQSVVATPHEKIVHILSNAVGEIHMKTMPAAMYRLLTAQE

T5: SNTG2, Q9NY99
T5 sequence (Q9NY99 68-166, limits assumed, looked up): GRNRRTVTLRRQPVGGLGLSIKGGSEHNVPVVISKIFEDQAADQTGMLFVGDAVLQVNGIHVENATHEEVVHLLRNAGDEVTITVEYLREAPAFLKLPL

T6: PTPN13_1, Q12923
T6 sequence (Q12923 1088-1188, limits assumed, looked up): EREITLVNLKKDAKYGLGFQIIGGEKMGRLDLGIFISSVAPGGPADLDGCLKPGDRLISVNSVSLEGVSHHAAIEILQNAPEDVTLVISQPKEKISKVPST

T7: DLG3_3, Q92796
T7 sequence (Q92796 374-475, limits assumed, looked up): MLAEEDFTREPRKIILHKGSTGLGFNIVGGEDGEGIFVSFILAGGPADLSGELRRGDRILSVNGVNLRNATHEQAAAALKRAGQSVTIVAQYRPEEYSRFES

T8: NHERF3_1, Q5T2W1
T8 sequence (Q5T2W1 4-100, limits assumed, looked up): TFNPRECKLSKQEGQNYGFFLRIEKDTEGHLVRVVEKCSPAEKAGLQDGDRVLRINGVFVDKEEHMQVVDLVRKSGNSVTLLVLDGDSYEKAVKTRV

T9: APBA2_1, Q99767
T9 sequence (Q99767 563-664, limits assumed, looked up): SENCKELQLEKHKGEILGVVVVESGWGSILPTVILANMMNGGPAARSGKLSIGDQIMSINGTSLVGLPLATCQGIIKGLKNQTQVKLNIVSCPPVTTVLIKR

T10: TIAM2, Q8IVF5
T10 sequence (Q8IVF5 885-986, limits assumed, looked up): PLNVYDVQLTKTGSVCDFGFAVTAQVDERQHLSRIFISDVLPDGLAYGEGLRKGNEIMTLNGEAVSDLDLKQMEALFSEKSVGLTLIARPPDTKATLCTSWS

B1: EPHB3, P54753 (peptide)
chain: QMNQTLPVQV
B2: MYOZ1, Q9NP98 (peptide)
chain: IPLDGETEEL

What follows are binders tested against T1, MPDZ_10, O75970 (assay: holdup assay). Details: plain residues with an end cap or a label only (N-terminal biotin on a linker: ado-ado).
Design: key: below the threshold = too weak to quantify, mostly under pKd 3.1 to 4
B1 showed a pKd of 3.49. In the case of B2, the pKd is reported as “below the threshold”.

The binders below were run against FRMPD2_2, Q68DX3 (assay: holdup assay). Details: plain residues with an end cap or a label only (N-terminal biotin on a linker: ado-ado).
Sequence of FRMPD2_2, Q68DX3 (Q68DX3 944-1038): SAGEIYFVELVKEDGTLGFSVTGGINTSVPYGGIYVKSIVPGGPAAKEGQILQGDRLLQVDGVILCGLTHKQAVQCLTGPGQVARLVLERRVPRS
Design: key: below the threshold = too weak to quantify, mostly under pKd 3.1 to 4
For B1, the pKd was “below the threshold”. With B2 the pKd was “below the threshold”.

Each binder was assayed against FRMPD2_3, Q68DX3 (assay: holdup assay). Details: plain residues with an end cap or a label only (N-terminal biotin on a linker: ado-ado).
Sequence of FRMPD2_3, Q68DX3 (Q68DX3 1073-1166): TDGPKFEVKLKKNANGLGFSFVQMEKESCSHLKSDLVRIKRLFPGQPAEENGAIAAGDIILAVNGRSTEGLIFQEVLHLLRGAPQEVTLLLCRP
Design: key: below the threshold = too weak to quantify, mostly under pKd 3.1 to 4
For B1, the pKd was “below the threshold”. For B2, the pKd was “below the threshold”.

These binders were tested against LAP2, Q96RT1 (assay: holdup assay). Details: plain residues with an end cap or a label only (N-terminal biotin on a linker: ado-ado).
Sequence of LAP2, Q96RT1 (Q96RT1 other isoform, or with tags, fused parts or gaps): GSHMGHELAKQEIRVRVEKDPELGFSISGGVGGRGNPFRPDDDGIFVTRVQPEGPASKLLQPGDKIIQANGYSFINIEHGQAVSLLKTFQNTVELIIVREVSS
Design: key: below the threshold = too weak to quantify, mostly under pKd 3.1 to 4
B1 was tested, and the pKd was “below the threshold”. In the case of B2, the pKd is reported as “below the threshold”.

What follows are binders tested against GRIP2_4, Q9C0E4 (assay: holdup assay). Details: plain residues with an end cap or a label only (N-terminal biotin on a linker: ado-ado).
Sequence of GRIP2_4, Q9C0E4 (Q9C0E4 446-548): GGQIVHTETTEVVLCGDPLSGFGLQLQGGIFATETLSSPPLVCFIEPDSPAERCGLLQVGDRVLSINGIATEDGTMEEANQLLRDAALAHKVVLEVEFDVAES
Design: key: below the threshold = too weak to quantify, mostly under pKd 3.1 to 4
With B1 the pKd was “below the threshold”. B2 was tested, and the pKd was “below the threshold”.

What follows are binders tested against GRIP2_3, Q9C0E4 (assay: holdup assay). Details: plain residues with an end cap or a label only (N-terminal biotin on a linker: ado-ado).
Sequence of GRIP2_3, Q9C0E4 (Q9C0E4 238-339): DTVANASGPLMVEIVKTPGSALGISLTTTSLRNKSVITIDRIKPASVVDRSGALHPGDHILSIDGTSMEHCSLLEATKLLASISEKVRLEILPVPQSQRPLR
Design: key: below the threshold = too weak to quantify, mostly under pKd 3.1 to 4
B1 was tested, and the pKd was “below the threshold”. With B2 the pKd was “below the threshold”.

The binders below were run against T2, PARD3B_1, Q8TEW8 (assay: holdup assay). Details: plain residues with an end cap or a label only (N-terminal biotin on a linker: ado-ado).
Design: key: below the threshold = too weak to quantify, mostly under pKd 3.1 to 4
Work on B1 yielded a pKd of 3.78. In the case of B2, the pKd is reported as “below the threshold”.

The binders below were run against T3, PDZRN3_1, Q9UPQ7 (assay: holdup assay). Details: plain residues with an end cap or a label only (N-terminal biotin on a linker: ado-ado).
Design: key: below the threshold = too weak to quantify, mostly under pKd 3.1 to 4
B1 was tested, and the pKd was 3.51. With B2 the pKd was “below the threshold”.

What follows are binders tested against LNX1_2, Q8TBB1 (assay: holdup assay). Details: plain residues with an end cap or a label only (N-terminal biotin on a linker: ado-ado).
Sequence of LNX1_2, Q8TBB1 (Q8TBB1 371-470): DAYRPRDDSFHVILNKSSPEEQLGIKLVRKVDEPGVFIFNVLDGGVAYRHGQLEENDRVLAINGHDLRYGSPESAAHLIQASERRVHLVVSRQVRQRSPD
Design: key: below the threshold = too weak to quantify, mostly under pKd 3.1 to 4
Binder B1 has a pKd of 4.53. In the case of B2, the pKd is reported as “below the threshold”.

These binders were tested against T4, APBA1_2, Q02410 (assay: holdup assay). Details: plain residues with an end cap or a label only (N-terminal biotin on a linker: ado-ado).
Design: key: below the threshold = too weak to quantify, mostly under pKd 3.1 to 4
B1 showed a pKd of 4.8. For B2, the pKd was “below the threshold”.

Each binder was assayed against T5, SNTG2, Q9NY99 (assay: holdup assay). Details: plain residues with an end cap or a label only (N-terminal biotin on a linker: ado-ado).
Design: key: below the threshold = too weak to quantify, mostly under pKd 3.1 to 4
For B1, the pKd was “below the threshold”. For B2, the pKd was “below the threshold”.

These binders were tested against HTRA2, O43464 (assay: holdup assay). Details: plain residues with an end cap or a label only (N-terminal biotin on a linker: ado-ado).
Sequence of HTRA2, O43464 (O43464 355-458): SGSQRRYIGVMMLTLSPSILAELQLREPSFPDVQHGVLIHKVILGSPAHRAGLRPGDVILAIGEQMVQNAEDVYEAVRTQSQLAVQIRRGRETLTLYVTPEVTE
Design: key: below the threshold = too weak to quantify, mostly under pKd 3.1 to 4
B1 showed a pKd of 3.59. B2 was tested, and the pKd was “below the threshold”.

The binders below were run against GRIP2_6, Q9C0E4 (assay: holdup assay). Details: plain residues with an end cap or a label only (N-terminal biotin on a linker: ado-ado).
Sequence of GRIP2_6, Q9C0E4 (Q9C0E4 648-740): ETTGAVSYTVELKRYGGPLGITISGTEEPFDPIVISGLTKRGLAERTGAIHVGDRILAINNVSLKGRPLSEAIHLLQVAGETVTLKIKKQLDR
Design: key: below the threshold = too weak to quantify, mostly under pKd 3.1 to 4
In the case of B1, the pKd is reported as “below the threshold”. B2 was tested, and the pKd was “below the threshold”.

What follows are binders tested against Inadl_2, Q8NI35 (assay: holdup assay). Details: plain residues with an end cap or a label only (N-terminal biotin on a linker: ado-ado).
Sequence of Inadl_2, Q8NI35 (Q8NI35 238-335): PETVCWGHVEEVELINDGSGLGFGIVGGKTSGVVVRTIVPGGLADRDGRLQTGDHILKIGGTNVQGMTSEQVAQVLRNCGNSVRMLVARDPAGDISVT
Design: key: below the threshold = too weak to quantify, mostly under pKd 3.1 to 4
B1 was tested, and the pKd was “below the threshold”. B2 was tested, and the pKd was “below the threshold”.

What follows are binders tested against TJP1_3, Q07157 (assay: holdup assay). Details: plain residues with an end cap or a label only (N-terminal biotin on a linker: ado-ado).
Sequence of TJP1_3, Q07157 (Q07157 416-512): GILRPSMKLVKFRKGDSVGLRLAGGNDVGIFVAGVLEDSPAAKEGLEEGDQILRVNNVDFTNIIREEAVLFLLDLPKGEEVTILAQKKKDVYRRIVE
Design: key: below the threshold = too weak to quantify, mostly under pKd 3.1 to 4
In the case of B1, the pKd is reported as “below the threshold”. In the case of B2, the pKd is reported as “below the threshold”.

These binders were tested against MAGI1_1, Q96QZ7 (assay: holdup assay). Details: plain residues with an end cap or a label only (N-terminal biotin on a linker: ado-ado).
Sequence of MAGI1_1, Q96QZ7 (Q96QZ7 1-106): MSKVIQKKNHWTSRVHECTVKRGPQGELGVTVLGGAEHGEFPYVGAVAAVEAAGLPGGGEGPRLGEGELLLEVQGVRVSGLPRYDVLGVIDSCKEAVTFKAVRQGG
Design: key: below the threshold = too weak to quantify, mostly under pKd 3.1 to 4
In the case of B1, the pKd is reported as “below the threshold”. For B2, the pKd was “below the threshold”.

These binders were tested against CASK, O14936 (assay: holdup assay). Details: plain residues with an end cap or a label only (N-terminal biotin on a linker: ado-ado).
Sequence of CASK, O14936 (O14936 487-570): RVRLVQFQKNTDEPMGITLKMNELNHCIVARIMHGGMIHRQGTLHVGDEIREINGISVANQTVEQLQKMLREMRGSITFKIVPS
Design: key: below the threshold = too weak to quantify, mostly under pKd 3.1 to 4
In the case of B1, the pKd is reported as “below the threshold”. In the case of B2, the pKd is reported as “below the threshold”.

Each binder was assayed against T6, PTPN13_1, Q12923 (assay: holdup assay). Details: plain residues with an end cap or a label only (N-terminal biotin on a linker: ado-ado).
Design: key: below the threshold = too weak to quantify, mostly under pKd 3.1 to 4
With B1 the pKd was “below the threshold”. In the case of B2, the pKd is reported as “below the threshold”.

The binders below were run against T7, DLG3_3, Q92796 (assay: holdup assay). Details: plain residues with an end cap or a label only (N-terminal biotin on a linker: ado-ado).
Design: key: below the threshold = too weak to quantify, mostly under pKd 3.1 to 4
Work on B1 yielded a pKd of 3.56. For B2, the pKd was “below the threshold”.

These binders were tested against LNX1_1, Q8TBB1 (assay: holdup assay). Details: plain residues with an end cap or a label only (N-terminal biotin on a linker: ado-ado).
Sequence of LNX1_1, Q8TBB1 (Q8TBB1 261-371): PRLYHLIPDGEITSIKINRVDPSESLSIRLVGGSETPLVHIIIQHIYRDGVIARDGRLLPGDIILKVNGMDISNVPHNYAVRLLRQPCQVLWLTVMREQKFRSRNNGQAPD
Design: key: below the threshold = too weak to quantify, mostly under pKd 3.1 to 4
In the case of B1, the pKd is reported as “below the threshold”. With B2 the pKd was “below the threshold”.

What follows are binders tested against GRIP2_5, Q9C0E4 (assay: holdup assay). Details: plain residues with an end cap or a label only (N-terminal biotin on a linker: ado-ado).
Sequence of GRIP2_5, Q9C0E4 (Q9C0E4 544-642): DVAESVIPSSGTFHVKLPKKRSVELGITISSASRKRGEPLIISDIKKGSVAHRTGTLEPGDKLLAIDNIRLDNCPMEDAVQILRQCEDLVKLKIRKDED
Design: key: below the threshold = too weak to quantify, mostly under pKd 3.1 to 4
With B1 the pKd was “below the threshold”. B2 was tested, and the pKd was “below the threshold”.

The binders below were run against T8, NHERF3_1, Q5T2W1 (assay: holdup assay). Details: plain residues with an end cap or a label only (N-terminal biotin on a linker: ado-ado).
Design: key: below the threshold = too weak to quantify, mostly under pKd 3.1 to 4
With B1 the pKd was 3.48. With B2 the pKd was 3.48.

What follows are binders tested against PARD3_3, Q8TEW0 (assay: holdup assay). Details: plain residues with an end cap or a label only (N-terminal biotin on a linker: ado-ado).
Sequence of PARD3_3, Q8TEW0 (Q8TEW0 582-685): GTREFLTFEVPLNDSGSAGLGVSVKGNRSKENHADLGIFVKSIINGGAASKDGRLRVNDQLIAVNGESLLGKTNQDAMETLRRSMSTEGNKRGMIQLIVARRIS
Design: key: below the threshold = too weak to quantify, mostly under pKd 3.1 to 4
B1 gave a pKd of 3.51. Work on B2 yielded a pKd of 3.97.

What follows are binders tested against T9, APBA2_1, Q99767 (assay: holdup assay). Details: plain residues with an end cap or a label only (N-terminal biotin on a linker: ado-ado).
Design: key: below the threshold = too weak to quantify, mostly under pKd 3.1 to 4
In the case of B1, the pKd is reported as “below the threshold”. For B2, the pKd was “below the threshold”.

These binders were tested against GORASP1, Q9BQQ3 (assay: holdup assay). Details: plain residues with an end cap or a label only (N-terminal biotin on a linker: ado-ado).
Sequence of GORASP1, Q9BQQ3 (Q9BQQ3 1-208): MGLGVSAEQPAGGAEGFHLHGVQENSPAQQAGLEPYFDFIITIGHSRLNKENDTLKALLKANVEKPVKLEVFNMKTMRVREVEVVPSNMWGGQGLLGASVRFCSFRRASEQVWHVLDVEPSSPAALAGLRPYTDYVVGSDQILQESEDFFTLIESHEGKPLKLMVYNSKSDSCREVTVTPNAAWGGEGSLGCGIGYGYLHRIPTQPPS
Design: key: below the threshold = too weak to quantify, mostly under pKd 3.1 to 4
With B1 the pKd was 3.58. With B2 the pKd was “below the threshold”.

The binders below were run against NHERF2_2, Q15599 (assay: holdup assay). Details: plain residues with an end cap or a label only (N-terminal biotin on a linker: ado-ado).
Sequence of NHERF2_2, Q15599 (Q15599 142-238): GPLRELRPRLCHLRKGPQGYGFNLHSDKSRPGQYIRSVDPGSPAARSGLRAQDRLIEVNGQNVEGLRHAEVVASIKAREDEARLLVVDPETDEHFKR
Design: key: below the threshold = too weak to quantify, mostly under pKd 3.1 to 4
For B1, the pKd was 3.51. For B2, the pKd was 3.96.

What follows are binders tested against T10, TIAM2, Q8IVF5 (assay: holdup assay). Details: plain residues with an end cap or a label only (N-terminal biotin on a linker: ado-ado).
Design: key: below the threshold = too weak to quantify, mostly under pKd 3.1 to 4
In the case of B1, the pKd is reported as “below the threshold”. With B2 the pKd was “below the threshold”.
